Results: patent publication US20140221622A1

Target: EGFR on U87MG.de2-7 cells (UniProt P00533)
Test: flow cytometry on U87MG.de2-7 cells, Alexa Fluor 488 anti-human IgG Fc

B1: DB001 DVD-Ig (CD3 and EGFR) (bispecific antibody)
VH: QVQLQESGPGLVKPSQTLSLTCTVSGYSISSDFAWNWIRQPPGKGLEWMGYISYSGNTRYQPSLKSRITISRDTSKNQFFLKLNSVTAADTATYYCVTAGRGFPYWGQGTLVTVSSASTKGPEVQLVESGGGLVQPGGSLRLSCAASGFTFSTYAMNWVRQAPGKGLEWVGRIRSKYNNYATYYADSVKDRFTISRDDSKNTAYLQMNSLRAEDTAVYYCTRHGNFGNSYVSWFAYWGQGTLVTVSS
VL: DIQMTQSPSSMSVSVGDRVTITCHSSQDINSNIGWLQQKPGKSFKGLIYHGTNLDDGVPSRFSGSGSGTDYTLTISSLQPEDFATYYCVQYAQFPWTFGGGTKLEIKTVAAPSVFIFPPDAQVTQSPSSLSASVGDRVTITCRSSTGAVTTSNYANWVQEKPGKLFKGLIGGTNKRAPGVPSRFSGSGSGTDATLTISSLQPEDFATYFCALWYSNLWVFGGGTKVEIKR
Work on B1 yielded an EC50 of 9 nM.
